Assay results: PMC5539989

Molecular target: GAL4 DBD-BRCA1 wild type (C-terminal region) (human) (UniProt P38398)
Assay: two-hybrid; mammalian two-hybrid: GAL4 DBD-BRCA1 as bait, VP16 AD-PALB2 as prey, co-transfected with the pG5Luc luciferase reporter and the phGR-TK Renilla control; read-out is luciferase activity above that of the BRCA1 construct alone

UniProt P38398, sequence (P38398 1396-1863): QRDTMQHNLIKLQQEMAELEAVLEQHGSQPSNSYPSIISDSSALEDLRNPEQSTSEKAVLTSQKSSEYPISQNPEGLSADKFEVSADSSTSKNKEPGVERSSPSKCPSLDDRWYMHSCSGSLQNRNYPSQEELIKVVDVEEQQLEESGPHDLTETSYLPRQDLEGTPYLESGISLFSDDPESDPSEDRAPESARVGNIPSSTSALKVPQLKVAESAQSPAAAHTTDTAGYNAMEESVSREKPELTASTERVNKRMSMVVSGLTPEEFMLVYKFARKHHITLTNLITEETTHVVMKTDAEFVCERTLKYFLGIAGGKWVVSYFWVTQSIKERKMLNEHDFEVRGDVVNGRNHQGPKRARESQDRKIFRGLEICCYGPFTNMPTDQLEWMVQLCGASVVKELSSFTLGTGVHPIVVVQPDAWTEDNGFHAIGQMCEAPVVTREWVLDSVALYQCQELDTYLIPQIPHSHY

- fold increase in luciferase activity with VP16-PALB2: 3.8 fold
B1: VP16 AD–PALB2 fusion protein (PALB2 aa 1–319) (domain or fragment)
chain: MDEPPGKPLSCEEKEKLKEKLAFLKREYSKTLARLQRAQRAEKIKHSIKKTVEEQDCLSQQDLSPQLKHSEPKNKICVYDKLHIKTHLDEETGEKTSITLDVGPESFNPGDGPGGLPIQRTDDTQEHFPHRVSDPSGEQKQKLPSRRKKQQKRTFISQERDCVFGTDSLRLSGKRLKEQEEISSKNPARSPVTEIRTHLLSLKSELPDSPEPVTEINEDSVLIPPTAQPEKGVDTFLRRPNFTRATTVPLQTLSDSGSSQHLEHIPPKGSSELTTHDLKNIRFTSPVSLEAQGKKMTVSTDNLLVNKAISKSGQLPTSS
